PMC3995211

Key:
[1] = substrate: NC(=O)C1=CN([C@@H]2O[C@H](COP(=O)(O)OP(=O)(O)OC[C@H]3O[C@@H](n4cnc5c(N)ncnc54)[C@H](OP(=O)(O)O)[C@@H]3O)[C@@H](O)[C@H]2O)C=CC1; experiment: cells, lysate or membranes; format: biochemical, Fructilactobacillus sanfranciscensis; conditions: 50 mM potassium phosphate pH 7.0, 25 °C, air-saturated O2 (250 µM), cell free extract
[2] = substrate: NC(=O)C1=CN([C@@H]2O[C@H](COP(=O)(O)OP(=O)(O)OC[C@H]3O[C@@H](n4cnc5c(N)ncnc54)[C@H](O)[C@@H]3O)[C@@H](O)[C@H]2O)C=CC1; experiment: cells, lysate or membranes; format: biochemical, Fructilactobacillus sanfranciscensis; conditions: 50 mM potassium phosphate pH 7.0, 25 °C, air-saturated O2 (250 µM), cell free extract

B1: LsNOX (Lactobacillus sanfranciscensis NOX) (Fructilactobacillus sanfranciscensis) (protein)
chain: MKVIVVGCTHAGTFAVKQTIADHPDADVTAYEMNDNISFLSCGIALYLGKEIKNNDPRGLFYSSPEELSNLGANVQMRHQVTNVDPETKTIKVKDLITNEEKTEAYDKLIMTTGSKPTVPPIPGIDSSRVYLCKNYNDAKKLFEEAPKAKTITIIGSGYIGAELAEAYSNQNYNVNLIDGHERVLYKYFDKEFTDILAKDYEAHGVNLVLGSKVAAFEEVDDEIITKTLDGKEIKSDIAILCIGFRPNTELLKGKVAMLDNGAIITDEYMHSSNRDIFAAGDSAAVHYNPTNSNAYIPLATNAVRQGRLVGLNLTEDKVKDMGTQSSSGLKLYGRTYVSTGINTALAKANNLKVSEVIIADNYRPEFMLSTDEVLMSLVYDPKTRVILGGALSSMHDVSQSANVLSVCIQNKNTIDDLAMVDMLFQPQFDRPFNYLNILGQAAQAQADKAHK
notes: synthetic gene, plasmid pMSsN2, E. coli BL21 (DE3), untagged, cell free extract, about 50 kDa
Work on B1 yielded a Km [1] of 5 ± 1 µM, a Vmax [1] of 1.1 µmol/min/mg and a Km [2] of 9 ± 1 µM. The Vmax [2] was 2.2 µmol/min/mg.
